Laboratory results from patent publication US20180355043A1.

Experiments:
[1] = target: DR4G99: Human HLA-DRA1*01:02/DRB1*01:01 ECD with collagen peptide CII_1236-1249 (human); experiment: MSD ECL; antigen coated; mAb 0.2 µg/ml
[2] = target: DR4G99: Human HLA-DRA1*01:02/DRB1*01:01 ECD with collagen peptide CII_1236-1249 (human); experiment: MSD ECL; antigen coated; protocol of Example 3

B1: DR4B4 (antibody, V domains shown)
VH: QVQLKESGPGLVAPSQSLSITCTISGFSLTSYGVHWVRQPPGKGLEWLVVIWSDGSTTYNSALKSRLSISKDNSKSQVFLKMNSLQTDDTAIYYCASHYGSTLAFASWGHGTLVTVSA
VL: DIQMTQSPASLSASVGETVTIICRASVNIYSYLAWYQQKQGKSPQLLVYNAKILAEGVPSRFSGSGSGTQFSLKINSLQPEDFGSYYCQHHYGPFTFGSGTKLEIK
ECL signal [1]: 15500 ECL
ECL signal [2]: 697 ECL
